Assay results as given in patent US10865391B2, “Glutamate dehydrogenase mutants and their application in preparation of L-phosphinothricin” (ZHEJIANG UNIVERSITY, priority 2018, dated 2020).

B1: PpGluDH-A167G: PpGluDH mutant, alanine 167 to glycine, SEQ ID NO. 1 (protein)
chain: MSTMIESVDNFLARLKQRDPGQPEFHQAVEEVLRTLWPFLEANPHYLQSGILERMVEPERAVLFRVSWVDDQGKVQVNRGYRIQMSSAIGPYKGGLRFHPSVNLSVLKFLAFEQVFKNSLTSLPMGGGKGGSDFDPKGKSDAEVMRFCQAFMSELYRHIGADCDVPGGDIGVGAREIGFMFGQYKRLANQFTSVLTGKGMTYGGSLIRPEATGYGCVYFAEEMLKRQDKRIDGRRVAVSGSGNVAQYAARKVMDLGGKVISLSDSEGTLYAEAGLTDAQWDALMELKNVKRGRISELAGQFGLEFRKGQTPWSLPCDIALPCATQNELGAEDARTLLRNGCICVAEGANMPTTLEAVDIFLDAGILYAPGKASNAGGVAVSGLEMSQNAMRLLWTAGEVDSKLHNIMQSIHHACVHYGEEADGRINYVKGANIAGFVKVADAMLAQGVV
modifications: Pseudomonas putida glutamate dehydrogenase mutant
B2: PpGluDH-V378A: PpGluDH mutant, valine 378 to alanine, SEQ ID NO. 2 (protein)
chain: MSTMIESVDNFLARLKQRDPGQPEFHQAVEEVLRTLWPFLEANPHYLQSGILERMVEPERAVLFRVSWVDDQGKVQVNRGYRIQMSSAIGPYKGGLRFHPSVNLSVLKFLAFEQVFKNSLTSLPMGGGKGGSDFDPKGKSDAEVMRFCQAFMSELYRHIGADCDVPAGDIGVGAREIGFMFGQYKRLANQFTSVLTGKGMTYGGSLIRPEATGYGCVYFAEEMLKRQDKRIDGRRVAVSGSGNVAQYAARKVMDLGGKVISLSDSEGTLYAEAGLTDAQWDALMELKNVKRGRISELAGQFGLEFRKGQTPWSLPCDIALPCATQNELGAEDARTLLRNGCICVAEGANMPTTLEAVDIFLDAGILYAPGKASNAGGAAVSGLEMSQNAMRLLWTAGEVDSKLHNIMQSIHHACVHYGEEADGRINYVKGANIAGFVKVADAMLAQGVV
modifications: Pseudomonas putida glutamate dehydrogenase mutant

What was measured:
Assay type in all cases: biochemical
[1] = Standard enzyme activity measurement toward PPO, crude enzyme (per volume fermentation broth); conditions: toward PPO; for Enzyme activity (per volume fermentation broth): 100 mM substrate, 10 mM coenzyme, 500 mM NH4+, pH 7.5, 35° C., 10 min, crude enzyme; for Enzyme activity (per volume fermentation broth), times higher than that of wild type: versus wild type PpGluDH
Method: The preserved recombinant E. coli is streaked onto the plate for activation. Single colonies are picked and inoculated into 5 mL LB liquid medium containing 50 μg/mL kanamycin and cultured at 37° C. for 12 h. The culture is transferred to 50 mL fresh LB liquid medium containing 50 μg/mL kanamycin at a 2% inoculum, and then incubated at 37° C. until the OD600 reaches 0.6; after that, add IPTG to a final concentration of 0.5 mM, and then proceed with induction culture under the temperature of 18° C. for 16 h.
After the cultivation, the culture is centrifuged at 10000 rpm for 10 min; discard supernatant, and collect cells. The harvested cells are washed for 2 times using pH 7.5 50 mM phosphate buffer. After that, the cells are re-suspend into the pH 7.5 phosphate buffer and disrupted ultrasonically (400W for 30 times, Ultrasonic time is 3 s, and the interval is 7 s). The cell disrupted solution is centrifuged at 12000 g for 5 min at 4° C. to remove the precipitate, and the supernatant obtained is the crude enzyme containing recombinant glutamate dehydrogenase
(§1) The standard enzyme activity measurement system: Appropriate amount of enzyme, 100 mM substrate, 10 mM coenzyme (NADH or NADPH), 500 mM NH4^+ ((NH4)2SO4); total system volume is up to 400 μL; reaction medium is pH 7.5 phosphate buffer. 35° C. reaction for 10 min; after that, add 40 uL 5 M NaOH to terminate reaction.
(§2) Definition of enzyme activity unit: The quantity of enzyme as required by generation of 1 μmol L-phosphinothricin per minute under standard reaction conditions.
Proceed with induction culture of constructed mutants, and prepare crude enzyme solution.

[2] = Specific activity of pure enzyme toward PPO; conditions: for Specific activity of pure enzyme: purified protein; for Specific activity, times higher than that of wild type: versus wild type PpGluDH
Method: The recombinant E. coli carrying glutamate dehydrogenase gene used in the present invention is constructed and kept by our laboratory. The vector used is pET-28a(+), and the host used is E. coli BL21(DE3). NI-NTA resin (HisPur™ Ni-NTA Resin) used for protein purification is purchased from Thermo Scientific™; protein purification is carried out in reference to specifications.
as §1, §2
Meanwhile, specific activity of pure enzyme obtained through purification has also been measured. As measured, specific activity of pure protein of wild type PpGluDH is 0.31 U/mg; specific activity of PpGluDH-A167G is 38.13 U/mg, which is 123 times higher than that of wild type; specific activity of PpGluDH-V378A is 35.96 U/mg, which is 116 times higher than that of wild type.

[3] = Preparation of L-phosphinothricin by coupling glutamate dehydrogenase with glucose dehydrogenase; conditions: 500 mM PPO, NADP+, GluDH cells 1.0 g/L, 35° C., pH 7.5, 6 h
Method: The reaction process is monitored by measuring the concentration of substrate in the reaction solution applying high-performance liquid chromatography (HPLC). HPLC analysis method is stated as follows: column model: Pntulips® QS-C18, 5 μm, 4.6 mm×250 mm. Mobile phase: 50 mM (NH4)2HPO4, added 1% of 10% tetrabutyl ammonium hydroxide, adjusted to pH 3.6 with 50% phosphoric acid(mass fraction), added 8% acetonitrile. Detective wave length is 205 nm; flow rate is 1.0 mL/min. Column temperature is 40° C.
The enantiomeric excess and concentration of product are determined through pre-column derivatization high-performance liquid chromatography; the specific analysis method is stated as follows:
(1) HPLC condition: column model: Pntulips® QS-C18, 5 μm, 4.6 mm×250 mm. Mobile phase: 50 mM Sodium acetate: Acetonitrile=8: 0.5 (v/v). Detective wave length: 338 nm. Flow rate: 0.85 mL/min. Column temperature: 30° C.
(2) Derivatization reagent: Weigh 0.03 g phthalaldehyde and 0.1 g N-acetyl-L-cysteine, and use 400 uL ethanol for solubilization; after that, add 4 mL 0.2 mol/L borate buffer (pH 9.8) and shake for dissolution prior to storage in the fridge under the temperature of 4° C. (no more than 4 days).
(3) Derivatization reaction and analysis: Add 150 μL derivatization reagent into 100 μL sample, mix and incubate at 25° C. for 5 min, and then inject 20 μL for analysis.
Culture recombinant E. coli expressing glutamate dehydrogenase (PpGluDH) and glucose dehydrogenase (BsGDH-2M, SEQ ID NO. 21) with method in Step 3 of Embodiment 1; proceed with centrifugal collection of cells and ultrasonic cell disruption to prepare crude enzyme solution.
(§3) The final volume of the reaction is 30 mL; each sample contains 500 mM substrate PPO, 600 mM glucose, 250 mM (NH4)2SO4 and 0.5 mM NADP^+. Concentration of glutamate dehydrogenase cells (dry weight) is 1.0 g/L; concentration of glucose dehydrogenase cells (dry weight) is 1.25 g/L. Use water bath to control the reaction temperature at 35° C.; titrate ammonia to control pH at 7.5 during the reaction process. Use non-chiral HPLC to determine residual concentration of PPO after reaction for 6 h; meanwhile, use pre-column derivatization HPLC to determine the concentration and ee value of formed L-phosphinothricin.
as §3, with “0.5” for “1.0”
as §3, with “NAD^+.” for “NADP^+.”, “1.25” for “1.0”
The final volume of the reaction is 30 mL; each sample contains 500 mM substrate PPO, 600 mM glucose, 250 mM (NH4)2SO4 and 0.5 mM NAD^+. Concentration of glutamate dehydrogenase cells (dry weight) is 1.25 g/L; concentration of glucose dehydrogenase cells (dry weight) is 1.25 g/L. Use water bath to control the reaction temperature at 35° C.; titrate ammonia to control pH at 7.5 during the reaction process. […]

| Molecule | Enzyme activity (per volume fermentation broth) [1] | Enzyme activity (per volume fermentation broth), times higher than that of wild type [1] | Specific activity of pure enzyme [2] | Specific activity, times higher than that of wild type [2] | concentration of formed L-phosphinothricin [3] | residual PPO [3] | substrate conversion [3] |
| --- | --- | --- | --- | --- | --- | --- | --- |
| B1 | 14.85 U/mL | 135 times | 38.13 U/mg | 123 times | 83.7 g/L | 0.9 mM | 99.8% |
| B2 | 13.3 U/mL | 121 times | 35.96 U/mg | 116 times | 81.9 g/L | 1.2 mM | 99.8% |
